Literature values as cited in paper PMC6538672.

Molecular target: RMI1:RMI2 (Homo sapiens) (UniProt Q9H9A7)
UniProt Q9H9A7, sequence (Q9H9A7 whole entry, chain 1 of 2): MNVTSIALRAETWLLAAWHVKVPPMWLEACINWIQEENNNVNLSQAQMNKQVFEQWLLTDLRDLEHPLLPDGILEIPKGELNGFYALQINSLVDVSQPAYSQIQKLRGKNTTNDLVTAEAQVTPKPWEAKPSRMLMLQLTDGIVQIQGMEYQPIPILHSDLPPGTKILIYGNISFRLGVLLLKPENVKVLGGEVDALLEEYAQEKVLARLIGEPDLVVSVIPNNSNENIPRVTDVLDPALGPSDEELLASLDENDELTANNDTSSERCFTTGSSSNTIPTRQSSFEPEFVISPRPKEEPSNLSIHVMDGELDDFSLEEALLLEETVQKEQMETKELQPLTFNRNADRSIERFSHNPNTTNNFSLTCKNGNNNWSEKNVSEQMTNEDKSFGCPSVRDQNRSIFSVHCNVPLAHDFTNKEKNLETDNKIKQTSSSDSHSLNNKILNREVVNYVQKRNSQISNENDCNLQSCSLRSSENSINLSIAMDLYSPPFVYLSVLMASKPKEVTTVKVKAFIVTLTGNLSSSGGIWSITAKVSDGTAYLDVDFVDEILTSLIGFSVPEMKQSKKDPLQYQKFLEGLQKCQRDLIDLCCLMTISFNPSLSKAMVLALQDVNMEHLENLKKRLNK
UniProt Q9H9A7, sequence (Q96E14 2-147, chain 2 of 2, further chain): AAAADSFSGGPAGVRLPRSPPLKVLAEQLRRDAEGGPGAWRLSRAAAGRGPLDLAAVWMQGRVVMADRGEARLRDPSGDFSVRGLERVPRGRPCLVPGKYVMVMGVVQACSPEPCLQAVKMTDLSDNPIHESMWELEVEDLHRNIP

Kd: 5 nM
Substance: FANCM MM2 (from UniProt Q8IYD8)
